Where no end group is shown, it is not given here.
Columns and labels:
[1] = target: T1, Seprase on seprase-expressing LOX cells (human (human melanoma cell line LOX), UniProt Q12884 1-760); experiment: ELISA and immunofluorescence on LOX cells
T1 construct: whole, on cells
T1 sequence (looked up): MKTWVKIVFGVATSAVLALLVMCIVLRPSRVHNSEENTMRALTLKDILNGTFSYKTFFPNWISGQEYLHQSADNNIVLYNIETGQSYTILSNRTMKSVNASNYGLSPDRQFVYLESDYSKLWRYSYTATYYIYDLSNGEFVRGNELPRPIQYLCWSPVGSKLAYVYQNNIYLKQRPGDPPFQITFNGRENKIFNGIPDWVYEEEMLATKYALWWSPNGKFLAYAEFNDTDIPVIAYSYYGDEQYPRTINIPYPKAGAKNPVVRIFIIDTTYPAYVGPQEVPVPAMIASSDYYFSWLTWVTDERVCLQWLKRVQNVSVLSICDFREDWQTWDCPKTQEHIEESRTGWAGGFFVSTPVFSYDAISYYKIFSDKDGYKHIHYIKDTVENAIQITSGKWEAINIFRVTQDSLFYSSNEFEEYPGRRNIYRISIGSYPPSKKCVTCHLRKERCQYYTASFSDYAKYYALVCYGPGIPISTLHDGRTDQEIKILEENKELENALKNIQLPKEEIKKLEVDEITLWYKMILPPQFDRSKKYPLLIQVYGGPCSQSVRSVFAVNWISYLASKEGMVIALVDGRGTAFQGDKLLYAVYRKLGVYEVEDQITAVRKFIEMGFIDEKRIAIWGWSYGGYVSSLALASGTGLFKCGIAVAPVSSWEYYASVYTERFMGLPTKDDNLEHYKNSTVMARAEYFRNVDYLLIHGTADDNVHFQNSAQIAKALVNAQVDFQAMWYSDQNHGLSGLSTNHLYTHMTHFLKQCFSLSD

[2] = target: T1, Seprase on seprase-expressing LOX cells; experiment: ELISA and immunofluorescence on seprase-expressing LOX cells
[3] = target: T2, Native seprase isolated from LOX cells (human (isolated from the human melanoma …, UniProt Q12884 1-760)); experiment: cell-based or functional assay
T2 sequence (looked up): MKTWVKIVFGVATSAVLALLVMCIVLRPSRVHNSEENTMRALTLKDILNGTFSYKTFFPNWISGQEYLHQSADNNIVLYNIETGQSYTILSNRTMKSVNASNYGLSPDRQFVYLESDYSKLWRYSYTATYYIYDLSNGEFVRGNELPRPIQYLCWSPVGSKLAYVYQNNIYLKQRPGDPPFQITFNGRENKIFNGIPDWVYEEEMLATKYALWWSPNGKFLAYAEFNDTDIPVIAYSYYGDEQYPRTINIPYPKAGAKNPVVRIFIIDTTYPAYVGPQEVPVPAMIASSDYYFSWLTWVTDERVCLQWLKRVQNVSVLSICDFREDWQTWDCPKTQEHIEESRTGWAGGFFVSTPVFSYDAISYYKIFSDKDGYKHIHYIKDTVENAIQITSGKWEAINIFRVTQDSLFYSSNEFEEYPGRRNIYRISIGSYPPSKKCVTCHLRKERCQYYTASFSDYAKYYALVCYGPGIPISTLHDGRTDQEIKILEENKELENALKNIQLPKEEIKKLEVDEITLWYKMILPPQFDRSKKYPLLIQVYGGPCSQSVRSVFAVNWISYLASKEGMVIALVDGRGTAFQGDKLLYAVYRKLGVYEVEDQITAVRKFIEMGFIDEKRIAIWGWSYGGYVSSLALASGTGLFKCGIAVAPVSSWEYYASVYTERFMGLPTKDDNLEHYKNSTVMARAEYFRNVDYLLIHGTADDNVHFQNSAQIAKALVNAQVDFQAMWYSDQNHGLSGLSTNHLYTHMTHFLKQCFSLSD

[4] = target: T1, Seprase on seprase-expressing LOX cells; experiment: cell-based or functional assay
[5] = target: T2, Native seprase isolated from LOX cells; experiment: enzyme inhibition kinetics, prolyl dipeptidase activity of seprase with Gly-Pro-pNA, time progress curves (FIG. 1D)
[6] = target: T2, Native seprase isolated from LOX cells; experiment: inhibition kinetic analysis; reference is DPP4
DPP4 = experiment: enzyme inhibition kinetics, prolyl peptidase activity of DPP4 with Gly-Pro-pNA, time progress curves (FIG. 1E)
Sequence of DPP4 (P27487 whole entry): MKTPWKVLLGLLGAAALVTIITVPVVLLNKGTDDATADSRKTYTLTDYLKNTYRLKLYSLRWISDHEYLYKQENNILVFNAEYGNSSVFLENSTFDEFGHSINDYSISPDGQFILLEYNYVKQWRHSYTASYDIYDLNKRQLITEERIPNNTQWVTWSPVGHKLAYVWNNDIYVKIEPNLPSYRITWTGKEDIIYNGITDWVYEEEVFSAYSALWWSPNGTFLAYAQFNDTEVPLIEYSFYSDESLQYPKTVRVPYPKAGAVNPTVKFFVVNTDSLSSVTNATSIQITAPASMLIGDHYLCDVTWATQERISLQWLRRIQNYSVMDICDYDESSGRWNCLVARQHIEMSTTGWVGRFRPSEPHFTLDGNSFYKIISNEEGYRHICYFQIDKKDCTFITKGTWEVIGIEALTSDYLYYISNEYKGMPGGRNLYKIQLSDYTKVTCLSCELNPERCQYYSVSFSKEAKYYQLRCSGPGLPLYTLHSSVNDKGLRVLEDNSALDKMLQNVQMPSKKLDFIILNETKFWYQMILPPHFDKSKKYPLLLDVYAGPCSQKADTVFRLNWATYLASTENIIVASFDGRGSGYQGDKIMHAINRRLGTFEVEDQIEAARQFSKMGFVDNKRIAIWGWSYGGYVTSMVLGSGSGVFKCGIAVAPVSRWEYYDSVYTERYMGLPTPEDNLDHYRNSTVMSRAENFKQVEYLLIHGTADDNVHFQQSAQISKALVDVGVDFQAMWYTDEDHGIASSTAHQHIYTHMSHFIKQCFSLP

[7] = target: T2, Native seprase isolated from LOX cells; experiment: phage display panning and phage ELISA on seprase-coated wells (positive clone: OD405 experiment/OD405 control >3.0); peptide displayed on phage

Q: Does RKISASEFDRPLR (Control) [control peptide RKISASEFDRPLR] bind [1]?
A: Result: no binding

Q: Does GGAGDMWERVSRG bind [2]?
A: Result: binds

Q: What does the source list for CDMWERVSRC (also: cyclic peptide, mode of cyclisation not given here) [cyclic peptide CDMWERVSRC]?
A: IC50, inhibition of the gelatinolytic activity of seprase (DQ-gelatin assay) [3]: < 10 µM; IC50 on the overall collagen degradation by LOX cells (Bodipy FL C5 labelled type I collagen films) [4]: ~200 µM; Ki [5]: 0.4 µM; fold more effective against seprase than DPP4 [6]: 100 times; Ki (DPP4): 40 µM

B1: DLDYLSKF (peptide)
peptide: DLDYLSKF
notes: tested as a synthetic linear peptide in the enzyme assays
Q: Does B1 bind [7]?
A: Result: binds

B2: DMWERVSR (peptide)
peptide: DMWERVSR
notes: as for B1
Q: Does B2 bind [7]?
A: Result: binds
